Results on two substances are retold here after article doi:10.1101/2020.09.10.288878.

In this assay the target is taxol-stabilized microtubules polymerised from porcine brain tubulin (porcine) (UniProt P02550). Kind of assay: co-sedimentation.

For the substance “MBP-MTB-12Q (MBP-tagged Sli15 microtubule binding domain, twelve basic SAH residues to glutamine) (domain or fragment)”, the decrease in the pellet fraction against MBP-MTB-WT is 20%.
Take “MBP-MTB-ΔSAH (MBP-tagged Sli15 microtubule binding domain with the SAH region deleted) (domain or fragment)”: the decrease in the pellet fraction against MBP-MTB-WT came out at 20%.
